Experimental findings from article PMC7595577 are described below.

One may read the Kd as the equilibrium constant for the complex coming apart. The low end stands for tighter binding, the high end for weaker binding.

In the assay the target is biotinylated CD16 (UniProt P08637). Put plainly: BLI.

B1: QA255.072 IgG (antibody, V domains shown)
VH: QVQLIQSGAEVRKPGSSVKVSCKAVGATFHNYAVSWVRQAPGQGLEWMGGIIPIRGLANQEPRFQGRLTITADESTGAIYMDLSSLRSDDSAVYYCARHYDDTSGFFYGAFDIWGQGTTLIVSS
VL: DIQMTQSPPSLSASVGDRVTISCRASQGIGNSVAWYQQKPGKAPKLLILAASSLRSGVPSRFSGSMSGTDFTLTISGLQPEDVATYYCQKYNSAPWTFGQGTKVEIK
B1 yielded a dissociation constant Kd of 4.9 µM.
